This data set addresses T1, BstYI NN1 (K133N/S172N) (Bacillus stearothermophilus, K133N,S172N).
T1 chain: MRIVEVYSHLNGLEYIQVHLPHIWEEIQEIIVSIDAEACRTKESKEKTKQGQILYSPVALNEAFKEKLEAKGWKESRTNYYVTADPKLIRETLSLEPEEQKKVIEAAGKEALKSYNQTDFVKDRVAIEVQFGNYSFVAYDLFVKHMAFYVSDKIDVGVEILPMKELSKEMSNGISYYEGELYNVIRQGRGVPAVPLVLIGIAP
Nature of the data set: cleavage_in_vitro; 60 C. The following applies: label: radiolabel.

B1: AGATCT site, 60 bp substrate (dsDNA)
DNA 1: AGATCT
DNA 2: AGATCT
In the case of B1, the binding signal is 7 fold preference over AGATCC/GGATCT.

Values taken from US20050164186, “Alteration of restriction endonuclease specificity by genetic selection” (published 2005).
